Experimental data taken from publication PMC9834170 (Cell Reports Medicine, 2023).

B1: nanobody R14 (VHH)
VHH: QVQLQESGGGLVQPGGSLRLSCAVSGFTLDYYAIGWFRQAPGKEREGVSCISSSDGSTSYADSVKGRFTISRDNAKNTVYLQMNSLKPEDTALYYCAATPATYYSGRYYYQCPAGGMDYWGQGTQVTVSS
B2: nanobody S43 (VHH)
VHH: QVQLQESGGGLVQPGGSLRLTCAPSGFTLDYYAIGWFRQAPGKEREGVSCISSNNSTYYADSVKGRFTISRDNAKNTVYLQMNSLKPEDTAVYYCAAEPDYSGVYYYTCGWTDFGSWGQGTQVTVSS

Experiments:
[1] = biological target: T1, SARS-CoV-2 prototype RBD with human IgG Fc-tag (SARS-CoV-2, UniProt P0DTC2); experiment: cell-based or functional assay
[2] = biological target: T1, SARS-CoV-2 prototype RBD with human IgG …; experiment: SPR

Binder	IC50 of neutralization of live SARS-CoV-2 in Vero cells (blocks RBD with hACE2) [1] [nM]	Kd [2] [nM]	IC50 of neutralization of live SARS-CoV-2 in Vero cells (blocks S with ACE2) [1] [nM]
B1	1.3		
B2		0.18	40.7
